Legend:
SHP2-C SH2 = assay: SH2 binding enrichment of the phosphorylated peptide, bacterial display (enrichment ratio); higher = better substrate or ligand; peptides without Tyr show the background
Grb2 SH2 = Grb2 SH2 (UniProt P62993); assay: as above
c-Src SH2 = assay: as above
Fer (mouse) = assay: phosphorylation enrichment, bacterial display (enrichment ratio); higher = better substrate or ligand; peptides without Tyr show the background
c-Src = assay: as above
Fes = Fes (UniProt P07332); assay: as above
Fes, sequence (P07332 whole entry, looked up): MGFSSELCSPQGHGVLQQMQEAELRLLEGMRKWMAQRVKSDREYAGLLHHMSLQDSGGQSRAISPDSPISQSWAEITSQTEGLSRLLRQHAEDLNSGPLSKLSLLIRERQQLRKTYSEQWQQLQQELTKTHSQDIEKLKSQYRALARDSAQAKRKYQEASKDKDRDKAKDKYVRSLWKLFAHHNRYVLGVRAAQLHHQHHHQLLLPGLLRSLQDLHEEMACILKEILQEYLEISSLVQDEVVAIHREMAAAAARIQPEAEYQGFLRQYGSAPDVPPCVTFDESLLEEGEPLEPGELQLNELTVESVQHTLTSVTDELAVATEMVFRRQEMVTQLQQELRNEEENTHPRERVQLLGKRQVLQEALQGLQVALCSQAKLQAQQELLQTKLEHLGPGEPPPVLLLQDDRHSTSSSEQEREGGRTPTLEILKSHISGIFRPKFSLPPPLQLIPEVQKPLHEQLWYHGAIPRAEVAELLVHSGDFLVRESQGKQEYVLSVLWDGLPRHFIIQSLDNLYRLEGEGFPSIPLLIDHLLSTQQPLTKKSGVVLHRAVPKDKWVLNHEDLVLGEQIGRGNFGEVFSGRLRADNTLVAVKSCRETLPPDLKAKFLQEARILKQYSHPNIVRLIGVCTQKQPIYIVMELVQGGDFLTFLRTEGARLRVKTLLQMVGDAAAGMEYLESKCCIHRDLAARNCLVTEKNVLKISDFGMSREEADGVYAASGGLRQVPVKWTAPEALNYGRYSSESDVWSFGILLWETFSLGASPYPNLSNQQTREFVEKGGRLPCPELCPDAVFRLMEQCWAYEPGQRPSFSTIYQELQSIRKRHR

Hck = Hck (UniProt P08631); assay: as above
Hck, sequence (P08631 whole entry, looked up): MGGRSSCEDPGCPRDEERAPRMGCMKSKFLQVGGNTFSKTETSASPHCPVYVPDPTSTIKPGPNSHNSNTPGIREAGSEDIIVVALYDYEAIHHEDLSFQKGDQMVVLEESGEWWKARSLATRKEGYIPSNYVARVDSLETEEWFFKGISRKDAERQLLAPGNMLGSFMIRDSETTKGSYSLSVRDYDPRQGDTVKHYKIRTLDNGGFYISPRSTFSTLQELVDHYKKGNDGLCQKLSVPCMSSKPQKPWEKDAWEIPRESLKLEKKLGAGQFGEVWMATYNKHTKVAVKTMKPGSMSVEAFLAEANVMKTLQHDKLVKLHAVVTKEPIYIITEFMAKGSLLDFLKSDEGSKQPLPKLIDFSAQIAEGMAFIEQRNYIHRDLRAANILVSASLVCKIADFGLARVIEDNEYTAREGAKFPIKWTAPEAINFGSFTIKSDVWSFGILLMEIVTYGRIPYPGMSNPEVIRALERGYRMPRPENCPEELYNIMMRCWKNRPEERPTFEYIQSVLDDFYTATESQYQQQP

c-Abl (mouse) = assay: as above
MERTK = MERTK (UniProt Q12866); assay: as above
EPHB1 = EPHB1 (UniProt P54762); assay: as above
AncSZ = assay: as above
Jak2 = Jak2 (UniProt O60674); assay: as above
Jak2, sequence (O60674 whole entry, looked up): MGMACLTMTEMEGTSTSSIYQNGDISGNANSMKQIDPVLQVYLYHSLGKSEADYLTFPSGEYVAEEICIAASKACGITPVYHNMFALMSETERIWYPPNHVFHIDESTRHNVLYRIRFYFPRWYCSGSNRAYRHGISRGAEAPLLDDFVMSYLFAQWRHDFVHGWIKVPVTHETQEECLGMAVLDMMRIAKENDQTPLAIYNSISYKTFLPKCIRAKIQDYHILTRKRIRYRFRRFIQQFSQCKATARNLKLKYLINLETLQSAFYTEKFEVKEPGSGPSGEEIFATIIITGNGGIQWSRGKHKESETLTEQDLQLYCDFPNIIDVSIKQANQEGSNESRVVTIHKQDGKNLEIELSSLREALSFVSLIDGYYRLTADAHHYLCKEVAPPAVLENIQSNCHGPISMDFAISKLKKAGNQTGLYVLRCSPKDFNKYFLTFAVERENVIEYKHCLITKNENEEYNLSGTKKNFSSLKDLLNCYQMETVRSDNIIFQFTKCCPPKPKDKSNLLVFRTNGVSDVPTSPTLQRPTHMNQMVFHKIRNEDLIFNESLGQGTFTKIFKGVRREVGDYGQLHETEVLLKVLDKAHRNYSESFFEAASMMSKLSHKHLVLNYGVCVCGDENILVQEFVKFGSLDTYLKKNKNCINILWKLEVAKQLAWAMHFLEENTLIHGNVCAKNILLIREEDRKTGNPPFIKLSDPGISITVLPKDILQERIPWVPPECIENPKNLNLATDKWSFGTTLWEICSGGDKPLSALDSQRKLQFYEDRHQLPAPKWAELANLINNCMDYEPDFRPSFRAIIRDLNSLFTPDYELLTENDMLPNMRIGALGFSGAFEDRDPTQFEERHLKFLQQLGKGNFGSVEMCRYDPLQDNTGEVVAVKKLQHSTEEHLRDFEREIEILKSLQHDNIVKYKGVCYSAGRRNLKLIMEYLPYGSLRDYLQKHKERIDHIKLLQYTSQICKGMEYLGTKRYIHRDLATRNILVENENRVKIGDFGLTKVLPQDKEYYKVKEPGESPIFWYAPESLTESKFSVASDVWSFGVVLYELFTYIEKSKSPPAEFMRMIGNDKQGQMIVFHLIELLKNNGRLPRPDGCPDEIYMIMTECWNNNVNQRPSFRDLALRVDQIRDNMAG

EPHB2 = EPHB2 (UniProt P29323); assay: as above
EPHB2, sequence (P29323 whole entry, looked up): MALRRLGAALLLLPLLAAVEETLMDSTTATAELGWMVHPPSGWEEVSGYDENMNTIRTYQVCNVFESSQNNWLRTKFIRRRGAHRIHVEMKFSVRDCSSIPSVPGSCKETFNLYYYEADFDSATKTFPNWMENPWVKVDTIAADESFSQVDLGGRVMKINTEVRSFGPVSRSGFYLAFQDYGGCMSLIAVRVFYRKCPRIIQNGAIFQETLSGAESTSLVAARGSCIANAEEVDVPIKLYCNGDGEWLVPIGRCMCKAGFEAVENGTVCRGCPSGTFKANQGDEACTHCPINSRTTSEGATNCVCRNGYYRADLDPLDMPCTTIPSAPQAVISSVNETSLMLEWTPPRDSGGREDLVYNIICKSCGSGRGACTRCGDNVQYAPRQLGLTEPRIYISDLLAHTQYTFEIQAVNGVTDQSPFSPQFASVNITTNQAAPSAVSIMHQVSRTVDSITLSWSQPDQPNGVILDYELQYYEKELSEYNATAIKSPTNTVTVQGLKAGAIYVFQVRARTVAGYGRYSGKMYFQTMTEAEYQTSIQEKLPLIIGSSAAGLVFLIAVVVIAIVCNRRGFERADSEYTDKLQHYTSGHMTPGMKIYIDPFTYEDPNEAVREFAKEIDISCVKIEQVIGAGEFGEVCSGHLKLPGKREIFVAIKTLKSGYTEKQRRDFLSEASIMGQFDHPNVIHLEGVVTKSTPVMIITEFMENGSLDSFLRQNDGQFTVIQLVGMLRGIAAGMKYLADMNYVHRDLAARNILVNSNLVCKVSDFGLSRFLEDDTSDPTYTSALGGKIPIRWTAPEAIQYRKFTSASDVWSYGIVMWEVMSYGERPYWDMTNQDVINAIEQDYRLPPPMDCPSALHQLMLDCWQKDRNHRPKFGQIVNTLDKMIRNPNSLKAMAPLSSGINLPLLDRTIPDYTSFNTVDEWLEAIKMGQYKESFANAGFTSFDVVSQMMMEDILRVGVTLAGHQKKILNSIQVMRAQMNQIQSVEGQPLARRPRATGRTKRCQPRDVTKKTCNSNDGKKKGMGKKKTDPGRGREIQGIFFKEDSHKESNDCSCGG

Fyn = Fyn (UniProt P06241); assay: as above
Fyn, sequence (P06241 whole entry, looked up): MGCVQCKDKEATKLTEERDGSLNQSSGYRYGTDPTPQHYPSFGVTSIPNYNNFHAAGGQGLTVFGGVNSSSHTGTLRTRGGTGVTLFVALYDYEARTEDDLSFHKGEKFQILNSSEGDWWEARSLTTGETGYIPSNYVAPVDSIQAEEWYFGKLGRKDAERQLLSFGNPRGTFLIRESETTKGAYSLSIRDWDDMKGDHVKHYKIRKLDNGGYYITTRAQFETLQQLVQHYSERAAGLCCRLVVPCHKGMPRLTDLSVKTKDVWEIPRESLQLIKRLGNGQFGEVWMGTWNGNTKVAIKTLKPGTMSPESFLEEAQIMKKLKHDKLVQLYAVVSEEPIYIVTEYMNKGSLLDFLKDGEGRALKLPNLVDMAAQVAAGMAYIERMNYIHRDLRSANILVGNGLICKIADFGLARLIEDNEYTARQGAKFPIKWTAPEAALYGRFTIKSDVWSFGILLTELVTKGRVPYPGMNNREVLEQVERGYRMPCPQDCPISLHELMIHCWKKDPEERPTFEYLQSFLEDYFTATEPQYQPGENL

FGFR3 = FGFR3 (UniProt P22607); assay: as above
FGFR1 = FGFR1 (UniProt P11362); assay: as above
FGFR1, sequence (P11362 whole entry, looked up, the tested form may be a part): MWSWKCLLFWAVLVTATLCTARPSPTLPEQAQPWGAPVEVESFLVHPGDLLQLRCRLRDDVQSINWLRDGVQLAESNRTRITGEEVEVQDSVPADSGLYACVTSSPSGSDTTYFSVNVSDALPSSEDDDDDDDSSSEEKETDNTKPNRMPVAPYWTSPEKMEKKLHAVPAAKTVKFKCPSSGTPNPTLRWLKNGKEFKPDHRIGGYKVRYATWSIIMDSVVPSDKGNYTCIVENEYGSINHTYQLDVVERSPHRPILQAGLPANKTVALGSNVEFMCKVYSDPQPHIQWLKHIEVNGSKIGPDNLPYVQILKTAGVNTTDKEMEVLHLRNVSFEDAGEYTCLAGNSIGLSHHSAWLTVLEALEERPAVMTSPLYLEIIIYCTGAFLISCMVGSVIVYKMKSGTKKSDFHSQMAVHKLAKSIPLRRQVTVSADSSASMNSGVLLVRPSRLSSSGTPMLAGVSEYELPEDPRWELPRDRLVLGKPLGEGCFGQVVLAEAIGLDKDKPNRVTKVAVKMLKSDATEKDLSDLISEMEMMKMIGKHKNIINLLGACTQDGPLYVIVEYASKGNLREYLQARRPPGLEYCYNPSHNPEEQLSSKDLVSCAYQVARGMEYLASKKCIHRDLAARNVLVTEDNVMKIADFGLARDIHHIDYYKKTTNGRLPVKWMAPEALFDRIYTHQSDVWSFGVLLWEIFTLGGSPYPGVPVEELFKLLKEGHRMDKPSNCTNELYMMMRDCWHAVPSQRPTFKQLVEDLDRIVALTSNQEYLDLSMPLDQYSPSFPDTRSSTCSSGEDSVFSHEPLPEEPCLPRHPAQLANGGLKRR
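For SH2 binding enrichment of the phosphorylated peptide, bacterial display in this document: peptide library displayed on the E. coli surface as eCPX fusions, selected cells deep-sequenced, score is each peptide's frequency after selection divided by its frequency in the input.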
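For phosphorylation enrichment, bacterial display in this document: 11-residue human phosphosite peptides and single-mutation variants displayed on the E. coli surface, counted by deep sequencing, each peptide's frequency after selection divided by its frequency in the unselected input library; frequency after pTyr selection over input frequency; kinase dosed for 20-30% of maximal phosphorylation in three min.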

Row | Sequence | SH2 binding enrichment (SHP2-C SH2) | SH2 binding enrichment (Grb2 SH2) | SH2 binding enrichment (c-Src SH2) | phosphorylation enrichment (Fer (mouse)) | phosphorylation enrichment (c-Src) | phosphorylation enrichment (Fes) | phosphorylation enrichment (Hck) | phosphorylation enrichment (c-Abl (mouse)) | phosphorylation enrichment (MERTK) | phosphorylation enrichment (EPHB1) | phosphorylation enrichment (AncSZ) | phosphorylation enrichment (Jak2) | phosphorylation enrichment (EPHB2) | phosphorylation enrichment (Fyn) | phosphorylation enrichment (FGFR3) | phosphorylation enrichment (FGFR1)
1 | PSGPAYRGAVP [ASAH1_Y43_T42A] | 0.455 | 0.72 | 0.49 | 0.533 | 0.506 | 0.759 | 0.459 | 0.758 | 0.476 | 0.74 | 0.664 | 0.736 | 0.431 | 0.539 | 0.423 | 0.809
2 | EAEALYQTKFQ [KRT73_Y325] | 0.609 | 0.707 | 0.348 | 0.964 | 1.44 | 1.19 | 2.65 | 0.85 | 0.569 | 0.58 | 1.33 | 0.976 | 0.645 | 1.32 | 0.687 | 0.534
3 | FADIAYNYRHG [PAH_Y166] | 0.717 | 0.877 | 0.52 | 0.456 | 0.398 | 0.887 | 0.462 | 0.577 | 0.404 | 0.45 | 0.711 | 0.754 | 0.503 | 0.423 | 0.561 | 0.403
4 | KIVQDYLEKFY [MMP8_Y36_T32I] | 0.812 | 1.02 | 0.504 | 0.428 | 0.449 | 0.975 | 0.47 | 0.579 | 0.483 | 0.557 | 0.885 | 0.719 | 0.735 | 0.452 | 0.595 | 0.521
5 | MFDKEYFSVHN [MET_Y1234_YF] | 0.713 | 0.746 | 0.548 | 0.451 | 0.632 | 1.03 | 0.513 | 0.782 | 0.393 | 0.605 | 1.31 | 1.46 | 0.566 | 0.488 | 1.31 | 1.84
6 | NQDRTYYESVR [SPEN_Y632] | 0.963 | 0.924 | 5 | 0.993 | 2 | 0.819 | 2.05 | 0.787 | 1.02 | 0.569 | 0.897 | 0.762 | 0.661 | 1.4 | 0.828 | 1.02
7 | LEQRPYRRGSE [KCNJ12_Y427_E430G] | 0.733 | 0.891 | 0.419 | 0.447 | 0.399 | 0.683 | 0.523 | 0.594 | 0.442 | 0.348 | 0.651 | 0.576 | 0.478 | 0.424 | 0.511 | 0.365
8 | PGIRMYRVQYN [LRFN1_Y454_Q455R] | 0.714 | 0.838 | 0.507 | 0.989 | 0.473 | 1.08 | 0.62 | 0.675 | 0.527 | 0.744 | 0.759 | 0.626 | 0.586 | 0.486 | 0.713 | 0.58
9 | RENGPYFASFP [GDAP2_Y487_T489A_YF] | 0.707 | 0.812 | 0.534 | 0.627 | 1.27 | 0.924 | 0.432 | 0.893 | 0.565 | 0.443 | 1.17 | 1.27 | 0.534 | 0.568 | 0.891 | 0.889
10 | RSRRSYSCQVM [IGLL1_Y192] | 0.565 | 0.473 | 0.565 | 0.639 | 0.924 | 0.862 | 0.64 | 0.797 | 0.9 | 0.616 | 0.754 | 0.774 | 0.802 | 0.808 | 0.832 | 0.586
11 | YSIDYYRVGGH [NTRK2_Y707_T704I] | 0.753 | 0.832 | 1.44 | 0.514 | 2.15 | 0.916 | 1.78 | 0.494 | 8.42 | 1.52 | 1.65 | 6.54 | 0.86 | 1.31 | 9.07 | 12.5
12 | KKKKQYKGKFL [CASK_Y708_D710G_YF] | 0.916 | 0.685 | 0.515 | 0.439 | 0.638 | 0.526 | 0.523 | 0.547 | 0.533 | 0.447 | 0.617 | 0.535 | 0.549 | 0.532 | 0.579 | 0.485
13 | LLVVLNKFRCF [PSEN1_Y154_Y154N_YF] | 1.34 | 1.7 | 1.35 | 0.951 | 1.05 | 1.88 | 0.837 | 2.08 | 0.795 | 0.951 | 1.82 | 1.66 | 1.11 | 1.02 | 1.18 | 1.1
14 | NWGSPYKSNGC [ZNF347_Y261] | 0.725 | 0.819 | 0.586 | 0.48 | 0.52 | 1.09 | 0.52 | 0.667 | 0.41 | 0.459 | 0.894 | 0.759 | 0.569 | 0.373 | 0.546 | 0.48
15 | PEADKYHLTFA [FGG_Y300_R301H_YF] | 0.254 | 0.637 | 0.301 | 0.802 | 1.03 | 1.8 | 0.939 | 2.22 | 0.75 | 2.12 | 1.88 | 1.98 | 0.788 | 0.73 | 1.5 | 0.725
16 | LGPSDYFGEIA [PRKAR1A_Y323] | 0.599 | 0.878 | 0.51 | 0.579 | 0.68 | 1.14 | 0.602 | 0.746 | 0.605 | 0.696 | 1.76 | 1.08 | 0.727 | 0.705 | 1.12 | 1.39
17 | VNFDFYTVNLG [GFPT1_Y367_D366Y_YF] | 0.98 | 1.03 | 0.632 | 0.758 | 2.27 | 1.33 | 1.81 | 0.762 | 1.97 | 0.804 | 1.29 | 1.23 | 0.772 | 3.26 | 0.75 | 0.593
18 | TVVVPYEPPEV [TP53_Y220_S215T] | 0.701 | 0.626 | 1.08 | 0.512 | 0.537 | 1.16 | 0.458 | 0.89 | 0.549 | 0.548 | 1.08 | 1.35 | 0.439 | 0.475 | 0.62 | 0.528
19 | GEFFRYLAEVA [YWHAG_Y133_D129E_YF] | 0.673 | 0.924 | 0.454 | 0.51 | 0.442 | 1.17 | 0.431 | 0.747 | 0.438 | 0.46 | 0.873 | 1.02 | 0.501 | 0.575 | 0.767 | 0.498
20 | WQQQSYLDYGI [CTNNB1_Y30_S33Y] | 0.648 | 0.818 | 0.511 | 0.453 | 0.743 | 1.03 | 0.615 | 0.711 | 0.426 | 0.808 | 1.11 | 0.842 | 1.07 | 0.604 | 0.827 | 0.91
21 | CTTIHYNYMFN [TP53_Y234_C238F] | 1.13 | 0.951 | 1.06 | 0.757 | 0.522 | 1.21 | 0.498 | 0.926 | 0.681 | 0.672 | 1.14 | 1 | 0.641 | 0.555 | 0.812 | 0.657
22 | NFRNTYVNANE [KCNH2_Y475_T473N] | 1.55 | 29.8 | 2.64 | 0.358 | 0.424 | 0.677 | 0.466 | 0.467 | 0.404 | 0.373 | 0.559 | 0.577 | 0.395 | 0.404 | 0.474 | 0.434
23 | TVSSDYLHPQF [CCPG1_Y569_F566S_YF] | 0.704 | 0.848 | 0.527 | 0.495 | 0.457 | 0.927 | 0.444 | 0.877 | 0.411 | 0.823 | 1.8 | 0.779 | 0.538 | 0.404 | 0.753 | 0.514
24 | LGSNTYPFLLT [SAG_Y120] | 0.804 | 0.695 | 0.487 | 0.793 | 0.543 | 1.22 | 0.54 | 0.938 | 0.589 | 0.77 | 1.26 | 0.785 | 0.655 | 0.505 | 1.4 | 1.11
25 | VPFARYLAMNK [HARS1_Y138] | 0.561 | 0.739 | 0.576 | 0.334 | 0.362 | 0.516 | 0.381 | 0.328 | 0.376 | 0.379 | 0.432 | 0.361 | 0.43 | 0.382 | 0.442 | 0.388
26 | IDFARYWHGND [MMP11_Y162_D166N] | 0.708 | 0.807 | 0.525 | 0.423 | 0.345 | 0.835 | 0.479 | 0.504 | 0.372 | 0.556 | 0.918 | 0.564 | 0.486 | 0.431 | 0.551 | 0.508
27 | VDLIVYLWTNP [TK2_Y181_R183W] | 0.682 | 0.713 | 0.436 | 0.841 | 0.423 | 1.29 | 0.456 | 0.897 | 0.397 | 0.643 | 1.15 | 1.21 | 0.501 | 0.421 | 0.955 | 0.483
28 | SGSIHYSCVPR [GLB1_Y57_R59C] | 0.747 | 0.734 | 0.569 | 0.578 | 0.526 | 1.15 | 0.54 | 0.898 | 0.517 | 0.591 | 1.05 | 1.06 | 0.585 | 0.474 | 0.771 | 0.536
29 | TDIVAYSGRVQ [SPTBN2_Y477] |  |  |  | 0.264 | 1.05 | 0.196 | 0.407 | 1.13 | 0.885 | 0.369 | 0.857 | 1.48 | 2.04 | 1.05 | 1.05 | 0.214

Source: the supplement of paper PMC10065799, “High-throughput profiling of sequence recognition by tyrosine kinases and SH2 domains using bacterial peptide display” (eLife, 2023)
